Test results taken from PMC10984146.
Values joined by “and” are separate entries in the source; they are usually repeats but may differ in a detail not shown here. Equal values may be shown once. Read-outs that look alike come from different tables or passages of the source. One block for each substance: values may come before it.

How the values were obtained:
[1] = target: unclasped and untagged recombinant human integrin αVβ5 ectodomain (human) (UniProt P06756); experiment: fluorescence polarisation
[2] = target: reconstituted αVβ5/Hsp90α complex (human) (UniProt P06756); experiment: fluorescence polarisation
[3] = target: clasped and tagged recombinant human integrin αVβ5 ectodomain (human) (UniProt P06756); experiment: BLI
[4] = target: A488-irisin-His (UniProt Q8NAU1); experiment: fluorescence polarisation
[5] = target: A488-irisin-His (UniProt Q8NAU1); experiment: fluorescence polarisation; remark: listed apart in the source
[6] = target: A488-FN10 (human); experiment: fluorescence polarisation
[7] = target: A488-irisin-bac (UniProt Q8NAU1); experiment: fluorescence polarisation
[8] = target: A488-irisin-His (UniProt Q8NAU1); experiment: MST

Substance: FN10 (human fibronectin 10th FNIII domain, untagged) (domain or fragment)
Kd [1]: 239 nM

Substance: irisin-His (wild-type, glycosylated recombinant irisin from mammalian cells) (from UniProt Q8NAU1 1-191) (ligand)
Kd [2]: 52 nM | Kd [1]: 35 nM | Kd [3]: 212 nM

Substance: αVβ5 ectodomain mutant E304R (β5) (from UniProt P06756 32-991; P18084 24-717) (receptor)
reduction of affinity for irisin compared to WT [5]: 80%

Substance: αVβ5 ectodomain mutant R218E (β5) (from UniProt P06756 32-991; P18084 24-717) (receptor)
reduction of affinity for irisin compared to WT [5]: > 90%

Other lines, results leading:

Kd [1]: 294 nM and 299 nM
Substance: irisin-bac (non-glycosylated irisin produced in bacteria) (from UniProt Q8NAU1 1-260) (ligand)

Kd [4]: 31 nM | Kd [5]: 37 nM
Substance: reconstituted αVβ5/Hsp90α complex (from UniProt P06756 32-991; P18084 24-717; P07900 1-732)

Kd [6]: 146 nM | Kd [5]: 28 nM | Kd [7]: 256 nM | stoichiometry N [8]: 1
Substance: unclasped and untagged recombinant human integrin αVβ5 ectodomain (from UniProt P06756 32-991; P18084 24-717) (receptor)

Kd [2]: 50 nM
Substance: unlabeled and untagged irisin (glycosylated, from mammalian cells) (from UniProt Q8NAU1 1-191) (ligand)
